This note sets out measurements from patent publication CN113372445A.

For test [1], the target named is 人PD-1蛋白 (human) (UniProt Q15116). As to the kind of experiment: BLI (ForteBio), antibody loaded on sensor, PD-1 protein 100-6.25 nM in solution. On the technique in general: BLI is a label-free optical method that tracks binding on a fibre tip over time.
Test [2] concerns the target PD-1 on GS-J2/PD-1 cells (human) (UniProt Q15116). As to the kind of experiment: cell-based or functional assay.
The target of test [3] is 人PD-1蛋白 (human) (UniProt Q15116). As to the kind of experiment: competition ELISA: human PD-1 coated, antibody titrated together with biotin-labelled PD-L1 (competitor).

Chain of 人PD-1蛋白 (human) (Q15116 25-167 limits assumed): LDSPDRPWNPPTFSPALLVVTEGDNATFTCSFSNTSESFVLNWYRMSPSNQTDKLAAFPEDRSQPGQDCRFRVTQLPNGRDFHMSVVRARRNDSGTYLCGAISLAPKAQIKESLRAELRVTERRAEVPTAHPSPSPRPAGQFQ
Chain of PD-1 on GS-J2/PD-1 cells (human) (Q15116 25-288 limits assumed): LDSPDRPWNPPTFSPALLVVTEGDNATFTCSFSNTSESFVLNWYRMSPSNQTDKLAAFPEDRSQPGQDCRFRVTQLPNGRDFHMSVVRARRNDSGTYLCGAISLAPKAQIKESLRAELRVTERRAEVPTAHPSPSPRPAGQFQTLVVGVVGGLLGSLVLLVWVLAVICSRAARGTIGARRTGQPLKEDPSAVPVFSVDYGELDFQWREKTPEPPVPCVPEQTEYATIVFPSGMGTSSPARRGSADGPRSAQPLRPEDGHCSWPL

Usually Kd stands for the concentration at which binding is half-saturated. Usually koff stands for the first-order rate constant of dissociation. The low end stands for slow dissociation, the high end for fast dissociation. The term kon denotes a measure of how fast the partners come together. The EC50 is the midpoint of the concentration-response curve. Regarding Keytruda (antibody), in test [1], the Kd came to 1.01 nM, the koff worked out at 0.000286 s⁻¹ and the association rate constant (kon) was 283000 M⁻¹ s⁻¹. For the same substance, the EC50(nM), luciferase reporter (RLU, 激活百分比) in GS-J2/PD-1 cells co-cultured with GS-C2/PD-L1 cells in test [2] worked out at 0.142 nM. The substance further returned a 50% effective concentration (EC50) in test [3] of 110 nM.

In the case of Opdivo (antibody), in test [1], the Kd was 1.63 nM. The half-maximal effective concentration (EC50) in test [3] was 175 nM.
